The values below come from patent US20170157250A1.

By EC50 is commonly meant the concentration needed to bring the measured effect to its halfway point. Read a high EC50 as a need for much substance.

Assay [1] concerns the target human AXL (full length, on cells) (human (Homo sapiens)) (UniProt P30530). Briefly: flow cytometry, A431 cells, without Gas6; mean (s.d.). On the technique in general: In flow cytometry, cells or beads pass a laser one at a time.
Assay [2] shares this target. As to the kind of experiment: flow cytometry, A431 cells pre-incubated with 10 µg/mL Gas6 (competitor).
For assay [3] the target is unchanged. Briefly: flow cytometry, A431 cells pre-incubated with Gas6 (competitor); mean (s.d.).
Assay [4] has the same target. As to the kind of experiment: flow cytometry, A431 cells pre-incubated with 10 µg/mL Gas6 (competitor); mean (s.d.).
Assay [5] has the same target. Briefly: flow cytometry, A431 cells pre-incubated with Gas6 (competitor); mean (s.d.); less accurate due to low binding.
The target is the same in assay [6]. As to the kind of experiment: flow cytometry, A431 cells pre-incubated with 10 µg/mL Gas6 (competitor); mean (s.d.); less accurate due to low binding.

Chain of human AXL (full length, on cells) (human (Homo sapiens)) (P30530 26-894 limits assumed): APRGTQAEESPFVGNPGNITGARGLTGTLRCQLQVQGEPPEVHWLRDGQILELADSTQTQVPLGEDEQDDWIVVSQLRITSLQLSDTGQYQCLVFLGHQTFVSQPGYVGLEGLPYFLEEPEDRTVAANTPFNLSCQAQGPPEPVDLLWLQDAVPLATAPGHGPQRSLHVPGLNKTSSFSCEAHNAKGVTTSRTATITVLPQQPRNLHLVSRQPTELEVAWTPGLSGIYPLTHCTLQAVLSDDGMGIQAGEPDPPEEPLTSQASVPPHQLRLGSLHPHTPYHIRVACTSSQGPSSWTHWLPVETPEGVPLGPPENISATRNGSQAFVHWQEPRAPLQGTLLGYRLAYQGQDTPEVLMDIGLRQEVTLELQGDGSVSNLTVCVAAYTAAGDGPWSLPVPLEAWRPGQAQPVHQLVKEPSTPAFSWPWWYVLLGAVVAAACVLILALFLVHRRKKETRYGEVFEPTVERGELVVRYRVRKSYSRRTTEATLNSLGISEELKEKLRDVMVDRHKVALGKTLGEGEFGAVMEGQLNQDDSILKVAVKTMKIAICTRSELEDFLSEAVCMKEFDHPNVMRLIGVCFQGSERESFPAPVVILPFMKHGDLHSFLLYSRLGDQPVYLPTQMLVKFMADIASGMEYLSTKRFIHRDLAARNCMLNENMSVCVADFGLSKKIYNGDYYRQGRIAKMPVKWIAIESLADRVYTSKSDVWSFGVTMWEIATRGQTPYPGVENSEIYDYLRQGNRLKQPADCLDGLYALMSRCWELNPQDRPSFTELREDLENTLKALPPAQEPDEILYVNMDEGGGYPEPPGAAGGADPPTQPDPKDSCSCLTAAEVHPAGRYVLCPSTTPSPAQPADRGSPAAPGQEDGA

B1: YW327.6S2 (antibody, from another filing, V domains shown)
VH: EVQLVESGGGLVQPGGSLRLSCAASGFSLSGSWIHWVRQAPGKGLEWVGWINPYRGYAYYADSVKGRFTISADTSKNTAYLQMNSLRAEDTAVYYCAREYSGWGGSSVGYAMDYWGQGTLVTVSS
VL: DIQMTQSPSSLSASVGDRVTITCRASQDVSTAVAWYQQKPGKAPKLLIYSASFLYSGVPSRFSGSGSGTDFTLTISSLQPEDFATYYCQQSYTTPPTFGQGTKVEIK
As to B1, the EC50 came to 0.09 µg/mL in assay [1], 1.9 µg/mL in assay [5] and 1.9 µg/mL in assay [6]. Besides, in assay [2], the fold change of EC50 with Gas6 pre-incubation against without Gas6 worked out at 21 fold. In addition, in assay [2], the maximal binding in presence of Gas6 (% of binding without Gas6) is 19%. Also, the maximal binding in presence of Gas6 (% of binding in absence of Gas6) in assay [3] and in assay [4] was 41% throughout.
